Results: PMC7166090, “A bacteriophage mimic of the bacterial nucleoid-associated protein Fis” (Biochemical Journal, 2020)

T1: His-NinH wt (Bacteriophage lambda (cI857 Sam7), UniProt P03771 1-68, A15T)
T1 sequence: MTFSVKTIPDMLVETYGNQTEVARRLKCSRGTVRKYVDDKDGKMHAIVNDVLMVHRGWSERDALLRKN

T2: His-NinH H45A (Bacteriophage lambda (cI857 Sam7), UniProt P03771 1-68, A15T;H45A)
T2 sequence: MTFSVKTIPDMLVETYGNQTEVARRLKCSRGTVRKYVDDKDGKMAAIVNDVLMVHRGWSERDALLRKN

T3: His-NinH N18A (Bacteriophage lambda (cI857 Sam7), UniProt P03771 1-68, A15T;N18A)
T3 sequence: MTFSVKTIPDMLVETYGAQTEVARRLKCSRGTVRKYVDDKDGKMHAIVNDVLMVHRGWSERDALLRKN

T4: His-NinH R56A (Bacteriophage lambda (cI857 Sam7), UniProt P03771 1-68, A15T;R56A)
T4 sequence: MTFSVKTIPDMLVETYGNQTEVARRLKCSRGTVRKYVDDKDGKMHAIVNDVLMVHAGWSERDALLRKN

T5: His-NinH T32A (Bacteriophage lambda (cI857 Sam7), UniProt P03771 1-68, A15T;T32A)
T5 sequence: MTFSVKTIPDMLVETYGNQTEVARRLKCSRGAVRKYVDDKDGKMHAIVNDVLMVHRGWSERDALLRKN

T6: His-NinH S29A (Bacteriophage lambda (cI857 Sam7), UniProt P03771 1-68, A15T;S29A)
T6 sequence: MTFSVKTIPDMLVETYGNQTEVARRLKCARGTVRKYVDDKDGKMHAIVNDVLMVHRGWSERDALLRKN

T7: His-NinH K35A (Bacteriophage lambda (cI857 Sam7), UniProt P03771 1-68, A15T;K35A)
T7 sequence: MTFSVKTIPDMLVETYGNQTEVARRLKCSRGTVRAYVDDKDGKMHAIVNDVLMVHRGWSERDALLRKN


How the values were obtained:
[1] = molecular target: T1, His-NinH wt; test: EMSA; sub-micromolar; PBS; MST: PBS pH 7.4 + 0.05% Tween-20, 22 C; anisotropy: 6.7 mM Tris-HCl pH 8.0, 3.3 nM (so in the source) sodium acetate, 2 mM EDTA, 25 C; EMSA (32P): 50 mM Tris-HCl pH 8.0, 5 mM EDTA, 1 mM DTT, 5% glycerol, 100 ug/ml BSA, on ice; EMSA (Cy520): PBS pH 7.4, room temp; details: protein: recombinant; tags: N-His6; chain copies: 2; label: 5'-Cy5 on strand 1; blunt
[2] = molecular target: T2, His-NinH H45A; test: MST; retained significant binding; MST: PBS pH 7.4 + 0.05% Tween-20, 22 C; anisotropy: 6.7 mM Tris-HCl pH 8.0, 3.3 nM (so in the source) sodium acetate, 2 mM EDTA, 25 C; EMSA (32P): 50 mM Tris-HCl pH 8.0, 5 mM EDTA, 1 mM DTT, 5% glycerol, 100 ug/ml BSA, on ice; EMSA (Cy520): PBS pH 7.4, room temp; details: protein: recombinant; tags: N-His6; label: 5'-Cy5 on strand 1; blunt
[3] = molecular target: T3, His-NinH N18A; test: MST; intermediate effect; MST: PBS pH 7.4 + 0.05% Tween-20, 22 C; anisotropy: 6.7 mM Tris-HCl pH 8.0, 3.3 nM (so in the source) sodium acetate, 2 mM EDTA, 25 C; EMSA (32P): 50 mM Tris-HCl pH 8.0, 5 mM EDTA, 1 mM DTT, 5% glycerol, 100 ug/ml BSA, on ice; EMSA (Cy520): PBS pH 7.4, room temp; details: protein: recombinant; tags: N-His6; chain copies: 2; label: 5'-Cy5 on strand 1; blunt
[4] = molecular target: T4, His-NinH R56A; test: MST; MST: PBS pH 7.4 + 0.05% Tween-20, 22 C; anisotropy: 6.7 mM Tris-HCl pH 8.0, 3.3 nM (so in the source) sodium acetate, 2 mM EDTA, 25 C; EMSA (32P): 50 mM Tris-HCl pH 8.0, 5 mM EDTA, 1 mM DTT, 5% glycerol, 100 ug/ml BSA, on ice; EMSA (Cy520): PBS pH 7.4, room temp; details: protein: recombinant; tags: N-His6; chain copies: 2; label: 5'-Cy5 on strand 1; blunt
[5] = molecular target: T5, His-NinH T32A; test: as above; details: protein: recombinant; tags: N-His6; chain copies: 2; label: 5'-Cy5 on strand 1; blunt
[6] = molecular target: T1, His-NinH wt; test: as above; details: protein: recombinant; tags: N-His6; chain copies: 2; label: 5'-Cy5 on strand 1; blunt
[7] = molecular target: T6, His-NinH S29A; test: as above; details: protein: recombinant; tags: N-His6; chain copies: 2; label: 5'-Cy5 on strand 1; blunt
[8] = molecular target: T7, His-NinH K35A; test: as above; details: protein: recombinant; tags: N-His6; chain copies: 2; label: 5'-Cy5 on strand 1; blunt
[9] = molecular target: T1, His-NinH wt; test: EMSA; assembles on each arm; MST: PBS pH 7.4 + 0.05% Tween-20, 22 C; anisotropy: 6.7 mM Tris-HCl pH 8.0, 3.3 nM (so in the source) sodium acetate, 2 mM EDTA, 25 C; EMSA (32P): 50 mM Tris-HCl pH 8.0, 5 mM EDTA, 1 mM DTT, 5% glycerol, 100 ug/ml BSA, on ice; EMSA (Cy520): PBS pH 7.4, room temp; details: protein: recombinant; tags: N-His6; chain copies: 2; label: 5'-32P on strand 1; four-way junction, 11 bp homologous core

Binder | Kd [1] [nM] | Kd [2] [nM] | Kd [3] [nM] | binding result [4] | binding result [5] | Kd [6] [nM] | Kd [7] [nM] | binding result [8] | binding result [9]
Cy520 (NinH consensus) (dsDNA) DNA 1: ACCGATCAAGAATTGTGCAT DNA 2: ATGCACAATTCTTGATCGGT | < 1000 | > 350 | > 220 | no binding | no binding | 5.6 ± 1.5 | 13 ± 2.7 | no binding | –
Holliday junction HJ (structured_DNA) DNA 1: GGCGACGTGATCACCAGATGATTGCTAGGCATGCTTTCCGCAAGAGAAGC DNA 2: GGCTTCTCTTGCGGAAAGCATGCCTAGCAATCCTGTCAGCTGCATGGAAC DNA 3: GGTTCCATGCAGCTGACAGGATTGCTAGGCTCAAGGCGAACTGCTAACGG DNA 4: ACCGTTAGCAGTTCGCCTTGAGCCTAGCAATCATCTGGTGATCACGTCGC | – | – | – | – | – | – | – | – | binds
